Test results taken from patent US5451411A, “Methods and compositions for the oral delivery of therapeutic agents” (University of Washington, priority 1993, dated 1995).

Columns and labels:
[1] = Encapsulation efficiency of 125I-TGF-β1 in alginate beads; assay type: physicochemical
Experimental: Radioiodination of TGF-β1 : Radioiodination of TGF-β1 was completed in a 3.0-mL Eppendorf tube using a modified chloramine-T method (A. Tuong et al., "Site Specific Radioiodination of Recombinant Himdin," Annal. Biochem. 189:186-191 (1990)). To TGF-β1 (1 mg/1 mL) in 5 mMHCl, 10 μL of carrier-free Na^125 I (1.0 mCi) was added and mixed for 5 minutes. 100 μL of 0.1% chloramine-T was then added and, after vortexing for 60 seconds, the reaction was stopped by the addition of 100 μL of aqueous 0.1% mercaptoethanol followed by 100 μL of […]. ^125 I-TGF-β1 was diluted by adding 1.2 mL of citrate phosphate buffer (CPB), pH 2.6.
Free ^125 I was separated from ^125 I-TGF-β1 by gel filtration on a prepacked Sephadex G-25 column from Pharmacia (Uppsala, Sweden) preequilibrated with CPB. Twenty fractions of 0.5 mL each were collected, and aliquots were counted for activity using a γ-scintillation counter (Model 1185 GammaTrac; Tm Analytic; Elk Grove Village, IL). Separated ^125 I-TGF-β1 (S.A.=0.72 nCi/ng or 187 ng/μL was stored at 4° C. in 1.5 mL-Eppendofftubes. […]
Formation of Beads: 1.5 mL of the prebead mixture was drawn into a syringe equipped with a 30 G needle. […] If ^125 I-TGF-β1 was incorporated in the beads, calcium chloride was retained and counted for activity along with the 1.5 mL-Eppendoff tube to determine the % encapsulation of TGF-β1 in beads. […]

[2] = tested on: proliferating cell nuclear antigen (PCNA); test: Cell proliferation in intestinal crypts (PCNA immunohistochemistry, proliferating index); assay type: in vivo, Sprague-Dawley rats; conditions: TGF-β1 I.P. or P.O. in PBS
Experimental: Adult male Sprague-Dawley rats (250±30 g) were caged individually and handled according to the guidelines of American Association for the Accreditation of Laboratory Animal Care (AAALAC). For peroral administration of TGF-β1, the rats were anesthetized with intramuscularly injected ketamine-HCl (40 mg/kg) (Vetalar®, Aveco Inc., Fort Dodge, Iowa) and a catheter was inserted into the stomach perorally to exclude the failure of the formulation to reach stomach and intestine. Intraperitoneal injections were performed into the lower right quadrant of the abdomen. […]
Cell proliferation was quantified using immunohistochemical techniques for detecting proliferating cell nuclear antigen (PCNA), an endogenous marker of proliferating cells. […] The proliferating index (PI) was calculated as the number of epithelial cells in G1, S, G2 or M phase of the cell cycle per length (ram) of crypts counted. Four 0.25 mm areas (1 mm total) were scored for cell proliferation.

With “TGF-β1: TGF-β1 (1 mg/mL in 5 mM HCl) obtained from Bristol-Myers Squibb (Seattle, WA)” the “Encapsulation efficiency of TGF-β1 in alginate beads” value ([1]; prebead mixtures made in polypropylene tubes, most preparations) was “greater than 97.5%”, the “Loss of TGF-β1” value ([1]; use of glass vials) was “more than 98%” and the PCNA staining [2] was “moderate staining”.
